In PMC7846277 one finds mean rupture force data, which are given here for two substances.

For the assay, the target named is microtubules grown from purified bovine brain tubulin (bovine) (UniProt Q6B856). As to the kind of experiment: laser trap (optical trap) rupture force assay; kinetochore particles on anti-His5 beads (7.5 nM Dsn1-His-Flag), placed at the ends of microtubules growing from coverslip-anchored seeds; BRB80 growth buffer with 1 mM GTP, 1.5 mg/mL tubulin; force ramp 0.25 pN/s; 23°C.
Sequence of UniProt Q6B856 (Q6B856 whole entry, looked up): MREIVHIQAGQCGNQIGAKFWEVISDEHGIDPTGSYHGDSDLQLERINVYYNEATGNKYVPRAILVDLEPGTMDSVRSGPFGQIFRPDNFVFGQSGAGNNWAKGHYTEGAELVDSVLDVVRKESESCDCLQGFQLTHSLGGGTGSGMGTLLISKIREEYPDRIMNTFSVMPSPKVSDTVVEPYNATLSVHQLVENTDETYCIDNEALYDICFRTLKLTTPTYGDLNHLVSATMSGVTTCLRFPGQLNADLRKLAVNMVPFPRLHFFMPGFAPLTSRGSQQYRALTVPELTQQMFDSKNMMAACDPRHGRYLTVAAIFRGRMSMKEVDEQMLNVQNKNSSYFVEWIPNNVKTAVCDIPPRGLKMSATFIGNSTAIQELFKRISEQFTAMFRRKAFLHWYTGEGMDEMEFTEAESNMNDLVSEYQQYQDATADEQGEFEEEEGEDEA

In the case of “Wild-type meiotic metaphase I kinetochore particles (from UniProt P40568 1-576) (complex)”, the mean rupture force was 12 pN.
In the case of “Wild-type kinetochore particles from mitotic metaphase cells (from UniProt P40568 1-576) (complex)” it was 9 pN.
